Biological target: a representative mIgG1 mAb (used for the KD determinations; not told which) (mouse)
Assay: SPR; BIAcore 2000; mIgG1 mAb immobilised on CM-5; Z variants serially diluted 250 nM to 64 µM; KD for 1:1 interaction from equilibrium response values

| Kd [µM] | Substance |
| --- | --- |
| 10 | ZF5R, Z domain variant with F5R substitution (designed binder) |
| 10 | ZF5I, Z domain variant with Phe to Ile substitution at position 5 (designed binder) |

| Substance | Kd [µM] |
| --- | --- |
| wild type Z domain (ZWT), staphylococcal protein A-derived 58-residue three-helix bundle domain (designed binder) | > 100 |

Reference: article PMC3570467
